Results published in the RNAGym collection of RNA variant scans (doi:10.7554/elife.90254).

B1: LINE1-full (parent)
chain: UACGUAGGUGGUUUUCCCCUGAUAGUGCUAAGGGGGCCUGGAAGUUUGGACUGGGCAGAGCUCAACACAGCGUGGCAAAGUGGCUGUGGCUAGACUGCCUCUCUGGAUUCCUCGUCACUCAGCAGGGCAUCUCUGAGAGAAAUGCC

Variants of: B1
Test: self-cleavage, relative activity (ratio to wild type); higher = more cleavage; in vitro, sequencing; the parent is a self-cleaving ribozyme

In order of falling self-cleavage:
1. C76U U119C  2.91
2. U100C A107C  2.87
3. U100C G126C  2.64
4. U45C C113A  2.37
5. A77G A138G  2.3
6. A22U U119G  2.23
7. A22U A77G  2.23
8. G21U U115C  2.18
9. C76U U115C  2.12
10. G80A A107U  2.11
11. A22U A129G  2.09
12. G53A A117G  2.04
13. U12A A136G  2.03
14. U9C U81A  1.95
15. A77G A136U  1.92
16. U73A A140U  1.88
17. U15C A79C  1.84
18. A78G U104C  1.82
19. C123A A138G  1.82
20. G72A A78U  1.81
21. U23C G27A  1.8
22. A77G G83A  1.75
23. G21U A77G  1.7
24. U73C U119A  1.64
25. U112C U130C  1.61
26. C113G  1.58
27. U112C U143C  1.54
28. U15C A136G  1.52
29. U45C C120U  1.45
30. A138G U143A  1.45
31. U39G A129U  1.44
32. A22U C103U  1.42
33. C38A A121U  1.42
34. G40A U46C  1.4
35. A79G U115A  1.4
36. A30U A129U  1.38
37. A30G U45C  1.38
38. C111U C116A  1.37
39. U100C A117C  1.31
40. G54C U104C  1.3
41. U112C A140U  1.29
42. U13C U104C  1.28
43. C51U A117C  1.28
44. A107G A124U  1.27
45. U9C U73C  1.27
46. U81C U130A  1.27
47. U1A G40A  1.26
48. A31G U130A  1.26
49. G41A U132C  1.25
50. U73A C118U  1.25
51. U12A A124U  1.23
52. G40C A140G  1.23
53. U45A  1.21
54. C118G U132A  1.21
55. C19G U26C  1.2
56. U9C U13C  1.19
57. U15C A79G  1.18
58. U5C G82A  1.18
59. U45C C113U  1.15
60. G83A U130C  1.13
61. U12C A142G  1.13
62. U20G  1.1
63. U15A U130G  1.09
64. G10A U109C  1.08
65. U15A U115A  1.07
66. C28A  1.07
67. U109G A138U  1.07
68. U26G G105A  1.06
69. G4U A78G  1.05
70. C19U U115A  1.04
71. C38A U132C  1.02
72. G48C  1.01
73. U39C U143A  1.01
74. G33A A141G  1.01
75. G83U U143C  1.01
76. A57G A121U  1
77. A30G A142U  0.99
78. C19U A141G  0.99
79. U52A A107G  0.98
80. A22G A121G  0.95
81. U13C U130G  0.95
82. G10U U112C  0.93
83. C37A U100A  0.93
84. U14G A141G  0.89
85. U14C U20A  0.89
86. U5C A24G  0.86
87. C19U U73C  0.85
88. U91C C113A  0.82
89. A2G G114A  0.82
90. A6G G125A  0.77
91. A64U U100C  0.77
92. A30C U130A  0.75
93. U13A C51A  0.75
94. A64U A77G  0.75
95. C99U A138U  0.74
96. G7A A22U  0.73
97. U47C C128A  0.73
98. U14A C111A  0.72
99. A69G G125A  0.72
100. A2U A129G  0.72
101. A2G G74A  0.69
102. U52G U87C  0.69
103. A92U U132A  0.69
104. U47C C71A  0.68
105. U12C A69G  0.64
106. A50C A64G  0.63
107. U15G U46C  0.59
108. C71U G75A  0.59
109. U29A G74A  0.59
110. G54A U119A  0.55
111. U115A A141U  0.53
112. G74U A107G  0.51
113. A69G C111U  0.47
114. A24U A94G  0.47
115. G7U U46C  0.47
116. A65C A69U  0.36
117. A77U G122A  0.36
118. U14C A57C  0.36
119. C37A A64U  0.35
120. A64G A107G  0.33
121. A64C U81G  0.3
122. U46C A92G  0.29
123. U20G C95U  0.29
124. A42U U91C  0.27
125. U12A U14A  0.27
126. U87C G144A  0.24
127. U85C U108C  0.22
128. U12G U85G  0.21
129. U109G A140G  0.21
130. U91C A94U  0.2
131. U45C U85C  0.17
132. A65U A78G  0.16
133. U26A U96C  0.16
134. G70C  0.15
135. A24G C98A  0.13
136. C51U U96C  0.12
137. U87A U96C  0.12
138. A57U U143A  0.11
139. U15A U85A  0.11
140. A59G C110U  0.1
141. G70A  0.1
142. A59G U91A  0.09
143. G49U U62C  0.08
144. U85A G114A  0.08
145. U85A A138G  0.07
146. C37G U96G  0.07
147. U12A U62G  0.06
148. C76U A92G  0.06
149. U62A A121U  0.06
150. G58U U130C  0.05
151. A59G C133A  0.04
152. G89C  0.04
153. G80C G86U  0.04
154. A57U U87C  0.04
155. C56U U109C  0.03
156. G54A U85C  0.03
157. C66A A107G  0.03
158. A69C U134C  0.03
159. U45A U62C  0.03
160. G35A A92G  0.02
161. A50U G89A  0.02
162. C61A A79G  0.02
163. G53U A69U  0.01
164. G32U A121U  0
165. A69G A107U  0
166. U87G A117G  0
167. U12G A78G  0
